Assay results reported in the supplement of paper PMC7125110.
± gives the standard error. For some assays here: Variants at the floor of the assay were thinned out.

B1: glmS ribozyme (parent)
chain: AUAAAAGCGCCAGAACUACAGAAAUGUAGUUGACGAGGAGGAGGUUUAUCGAAUUUUCGGCGGAUGCCUCCAAA

Experiments:
Settings in all cases: with glucosamine-6-phosphate
[1] = variants of: B1; experiment: kcat; higher = faster cleavage; RNA array
Procedure, shortened: (§1)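 Barcoded ribozyme variants on sequenced MiSeq chips were transcribed in situ by E. coli RNA polymerase and followed at 37 °C through a hybridised Cy3 probe. Glucosamine-6-phosphate at 40 μM to 10 mM in HEPES/KCl/Mg(OAc)2 buffer was flowed in, and tiles were imaged over ~14 h. Signals were normalised to baseline and to non-cleaving reference variants, and per-tile medians were fit to one- or two-exponential decays to give kobs. Weighted Michaelis–Menten fits across concentrations gave kcat and KM.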

[2] = variants of: B1; experiment: KM; higher = weaker cofactor use; RNA array
Procedure, shortened: as §1

[3] = variants of: B1; experiment: self-cleavage kobs at 40 uM GlcN6P; higher = faster cleavage; RNA array
Procedure, shortened: as §1

[4] = variants of: B1; experiment: self-cleavage kobs at 160 uM GlcN6P; higher = faster cleavage; RNA array
Procedure, shortened: as §1

[5] = variants of: B1; experiment: self-cleavage kobs at 640 uM GlcN6P; higher = faster cleavage; RNA array
Procedure, shortened: as §1

[6] = variants of: B1; experiment: self-cleavage kobs at 2500 uM GlcN6P; higher = faster cleavage; RNA array
Procedure, shortened: as §1

[7] = variants of: B1; experiment: self-cleavage kobs at 10000 uM GlcN6P; higher = faster cleavage; RNA array
Procedure, shortened: as §1

Variant	kcat [1] [s⁻¹]	KM [2] [µM]	self-cleavage kobs at 40 uM GlcN6P [3] [s⁻¹]	self-cleavage kobs at 160 uM GlcN6P [4] [s⁻¹]	self-cleavage kobs at 640 uM GlcN6P [5] [s⁻¹]	self-cleavage kobs at 2500 uM GlcN6P [6] [s⁻¹]	self-cleavage kobs at 10000 uM GlcN6P [7] [s⁻¹]
U56A C71G	0.00102 ± 0.00013	1010 ± 210	5.19e-05 ± 8e-06	0.000119 ± 1.8e-05	0.000396 ± 4.5e-05	0.000715 ± 9.6e-05	0.000952 ± 0.0001
A39C C71G	1.47e-05 ± 1.2e-06	–	–	< 1e-05	–	–	–
A15U A33U	5.77e-05 ± 6.8e-06	–	–	–	–	5.26e-05 ± 1e-05	5.13e-05 ± 7.3e-06
U31C U57A	2.49e-05 ± 2.1e-06	–	–	–	–	2.32e-05 ± 9.8e-06	–
A6U A36C G38A A52U	1.37e-05 ± 2.9e-06	–	–	–	< 1e-05	–	< 1e-05
C10U U31A	2.74e-05 ± 1e-06	5120 ± 380	–	–	–	–	–
A14U U54C	0.00754 ± 0.0024	1830 ± 830	0.00021 ± 2.8e-05	0.000513 ± 8.8e-05	0.00201 ± 0.00026	0.00338 ± 0.00053	0.00856 ± 0.0012
C16A G29C	0.00401 ± 0.0015	1940 ± 970	0.000114 ± 1.3e-05	0.000215 ± 4.5e-05	0.000949 ± 0.00011	0.00217 ± 0.0003	0.00391 ± 0.00075
U30A G40U	0.000556 ± 6.4e-05	2160 ± 580	–	–	0.000117 ± 3e-05	0.000367 ± 9e-05	0.000446 ± 6.3e-05
U31C U55C	0.00793 ± 0.00044	3750 ± 300	8.92e-05 ± 2.1e-05	0.000317 ± 6.4e-05	0.00116 ± 0.00021	0.00284 ± 0.00079	0.00585 ± 0.00073
A6C U54C	0.000106 ± 1.8e-05	2090 ± 1000	–	–	–	6.36e-05 ± 1e-05	8.4e-05 ± 1.4e-05
U30C G37A	2.63e-05 ± 1.2e-06	710 ± 290	–	–	–	–	2.44e-05 ± 9e-06
A12G C16U C34G C67G	1.6e-05 ± 3.8e-06	–	–	–	–	–	–
A52G U54A	0.00109 ± 0.00027	1560 ± 590	–	9.56e-05 ± 1.7e-05	0.000442 ± 7.6e-05	0.00057 ± 0.00011	0.00101 ± 0.0002
G13U U55G	0.00153 ± 0.00021	3830 ± 780	2.48e-05 ± 7.6e-06	6.37e-05 ± 8.5e-06	0.000195 ± 2.5e-05	0.000643 ± 7.1e-05	0.00109 ± 0.00011
C71A	0.0153 ± 0.0014	2490 ± 360	0.00092 ± 0.0004	0.00104 ± 7.6e-05	0.00298 ± 0.00014	0.00761 ± 0.00039	0.0124 ± 0.0006
C16G U49G	6.89e-05 ± 1.1e-05	–	–	–	–	5.02e-05 ± 1.3e-05	5.76e-05 ± 1.1e-05
A14U C50U C67G	3.51e-05 ± 1.5e-05	–	–	–	–	–	–
G32A C50U C70A	3.48e-05 ± 1.3e-05	–	–	–	–	5.7e-05 ± 1.9e-05	–
A15U G38U	< 1e-05	–	< 1e-05	< 1e-05	–	–	–

Variant	kcat [1] [s⁻¹]	KM [2] [µM]	self-cleavage kobs at 40 uM GlcN6P [3] [s⁻¹]	self-cleavage kobs at 160 uM GlcN6P [4] [s⁻¹]	self-cleavage kobs at 640 uM GlcN6P [5] [s⁻¹]	self-cleavage kobs at 2500 uM GlcN6P [6] [s⁻¹]	self-cleavage kobs at 10000 uM GlcN6P [7] [s⁻¹]
G41A A64G	0.00209 ± 0.00064	5950 ± 2800	–	7.21e-05 ± 2e-05	–	0.00071 ± 0.00016	0.00128 ± 0.00023
A15U A64U	1.4e-05 ± 4.2e-06	–	< 1e-05	< 1e-05	–	–	–
G37U U57G	< 1e-05	–	–	–	–	< 1e-05	–
G9A U31A	2.13e-05 ± 6.3e-07	–	< 1e-05	< 1e-05	< 1e-05	–	–
C34G U47G C58A C68A	5.47e-05 ± 1.4e-05	–	–	6.99e-05 ± 1.7e-05	6.8e-05 ± 3.3e-05	6.86e-05 ± 2.9e-05	–
G32C G60A	< 1e-05	–	< 1e-05	–	–	–	–
C8G G37U	< 1e-05	–	–	< 1e-05	–	–	–
U49G C61A	1.48e-05 ± 3.5e-06	–	–	–	–	–	–
C50A U65G	2.65e-05 ± 9.7e-06	–	–	–	–	–	–
A15C C68A	2.89e-05 ± 1.1e-05	–	–	–	–	–	–
C34U G60C	< 1e-05	–	< 1e-05	–	–	–	–
A15U G51C	< 1e-05	–	< 1e-05	–	< 1e-05	–	–
G40C A52G	0.00018 ± 3.1e-05	2990 ± 1200	–	–	2.38e-05 ± 8.1e-06	0.000102 ± 1.5e-05	0.000133 ± 1.5e-05
U31C C68G	1.29e-05 ± 2.8e-06	–	–	–	–	–	–
A6G U65A	7.49e-05 ± 1.1e-05	–	–	–	–	4.41e-05 ± 1.2e-05	6.05e-05 ± 9.8e-06
C16G C50G	4.79e-05 ± 1.9e-05	–	–	–	–	6.05e-05 ± 1.4e-05	–
C16A C70A	3.47e-05 ± 1.4e-05	–	–	–	3.14e-05 ± 1.6e-05	6.59e-05 ± 2.4e-05	–
C10G G37U	< 1e-05	–	–	–	–	–	–
A39U A53U	0.0113 ± 0.0033	1260 ± 530	0.000461 ± 5e-05	0.000985 ± 0.00016	0.00368 ± 0.00054	0.00619 ± 0.001	0.0126 ± 0.0017
U30A A39U	0.00467 ± 0.0022	–	0.000191 ± 5.4e-05	0.000401 ± 8.1e-05	0.00188 ± 0.00036	0.0022 ± 0.00046	0.00745 ± 0.0016
